The values below come from publication PMC3361975.

Substrate in series [1]: O=[PH](O)O
Put plainly: purified protein. Conditions: co-substrate NAD+, 100 mM MOPS pH 7.25, 30 °C.

Substrate in series [2]: NC(=O)c1ccc[n+]([C@@H]2O[C@H](COP(=O)(O)OP(=O)(O)OC[C@H]3O[C@@H](n4cnc5c(N)ncnc54)[C@H](O)[C@@H]3O)[C@@H](O)[C@H]2O)c1
Nature of the series: purified protein. Conditions: co-substrate phosphite, 100 mM MOPS pH 7.25, 30 °C.

B1: wt-PTDH (P. stutzeri) (Stutzerimonas stutzeri) (protein)
chain: MLPKLVITHRVHDEILQLLAPHCELMTNQTDSTLTREEILRRCRDAQAMMAFMPDRVDADFLQACPELRVVGCALKGFDNFDVDACTARGVWLTFVPDLLTVPTAELAIGLAVGLGRHLRAADAFVRSGEFQGWQPQFYGTGLDNATVGILGMGAIGLAMADRLQGWGATLQYHEAKALDTQTEQRLGLRQVACSELFASSDFILLALPLNADTQHLVNAELLALVRPGALLVNPCRGSVVDEAAVLAALERGQLGGYAADVFEMEDWARADRPRLIDPALLAHPNTLFTPHIGSAVRAVRLEIERCAAQNIIQVLAGARPINAANRLPKAEPAAC
In the case of B1, in “purified protein [1]”, the Km is listed as 81.1 (1.6) μM and the kcat is 6.57 (0.03) s^-1. Further, in the series “purified protein [2]”, the Km is on record as 52.2 (3.3) μM and the kcat is 6.57 (0.03) s^-1.

B2: PTDH ortholog from N. punctiforme (Nostoc punctiforme PCC 73102) (protein)
chain: MKPKVVITHWVHPEIITNLSEYCEVVANPTRETLPREEILKLAQDAEALMVFMPDRIDEAFLKACPKLKIIAGALKGYDNFDVDACTRQGIWFTIVPSLLAVPTAELTIGLIIGLARQMLLGDRLIRQGTFAGWRPHLYGMGLANRTLGIVGMGSLGQALAQRLSSFEMNLIYTDAIPLPKEKAAAWCLSQVSLDTLLATSDFVVLMVPLQPETFHLINEKSLARMKPGSFLINPCRGSVVDEQAVSDALASGHLAGYAADVFELEDWARSDRPSKIPPSLLEKQDQTFFTPHLGSAVDDLRYDIAIEASQNILQVLQGHSPQGAINCPS
Consider B2, for which, in “purified protein [1]”, the Km is recorded as 25.4 (1.2) μM and the kcat is 3.36 (0.03) s^-1. For the same protein, in the series “purified protein [2]”, the Km is given as 19.4 (1.6) μM and the kcat is given as 3.36 (0.03) s^-1.

B3: PTDH ortholog from R. metallidurans (Cupriavidus metallidurans CH34) (protein)
chain: MNHRKIVVTQPVHEEVLRKLQAEGEVIMNPGPDPWSPSQLREYLVDADAMMAFMTDSVTKESLLNAPRLKTISCALKGYDNFDLRACAQAGVSVTFVPDLLTEPTAELAIGLAIAAGRNVLQGDAATRAGYSGWRPALYGTGLHGSVASVIGLGKVGQAILARLAGFGCARLLGVDPSVRLDQVELVTLDEAVSTSDYVFLAVPLVSDTRHLVDSRMLQLSKKGQILVNVGRGSVVDERAVVDALANEQLGAYAADVYEMEDWLLPDRPREIHPGLTNNARTVLTPHIGSAVRRVRFEIEMRAAENLVRSLRGESLSDVAVEASAAA
Turning to B3, in “purified protein [1]”, the Km was 54.9 (6.8) μM and the kcat is 6.83 (0.43) s^-1. Also, in “purified protein [2]”, the Km was 4.5 (0.9) μM and the kcat was 6.83 (0.43) s^-1.
